According to the Human Domainome abundance scans (Beltran et al. 2025):
± gives the uncertainty stated by the source.

B1: COUP transcription factor 1, residues 83 to 159; numbered along this chain, P10589 (parent)
chain: HIECVVCGDKSSGKHYGQFTCEGCKSFFKRSVRRNLTYTCRANRNCPIDQHHRNQCQYCRLKKCLKVGMRREAVQRG

Variants of: B1
Experiment: abundance fitness (aPCA) (normalised: wild type 0, dead -1); higher = more abundant; growth selection in yeast, the domain comes from the species named
Details: Homo sapiens

Variant	abundance fitness
K14Q	0.274 ± 0.2
Y38C	-0.745 ± 0.25
Y58N	-0.548 ± 0.11
Y58V	-0.787 ± 0.073
Y58M	-0.312 ± 0.063
Y58F	0.072 ± 0.088
Y58A	0.017 ± 0.037
Y58T	-0.774 ± 0.09
A73G	-0.025 ± 0.031
T37H	0.133 ± 0.072
G8V	-0.791 ± 0.17
C7W	-0.821 ± 0.14
C7L	-0.843 ± 0.15
Q50F	-0.299 ± 0.17
Q50K	0.097 ± 0.062
C46E	-0.229 ± 0.074
C46I	-0.267 ± 0.2
M69W	-0.629 ± 0.057
M69S	-0.783 ± 0.079
M69N	-0.864 ± 0.19
K10P	0.051 ± 0.071
K10W	-0.233 ± 0.053
K10M	-0.067 ± 0.059
K10D	0.16 ± 0.077

Variant	abundance fitness
S12V	0.076 ± 0.043
C21L	-0.9 ± 0.15
C21G	-0.744 ± 0.054
C21R	-0.845 ± 0.095
N43Q	0.027 ± 0.1
N43T	-0.051 ± 0.097
N43P	-0.256 ± 0.17
N43Y	-0.374 ± 0.23
R30E	0.054 ± 0.13
Q55P	-0.109 ± 0.058
Q55F	0.069 ± 0.063
Q55W	0.095 ± 0.051
Q55R	-0.074 ± 0.039
C64M	-0.059 ± 0.049
C64L	-0.513 ± 0.06
R33I	0.086 ± 0.16
R33W	0.068 ± 0.058
L65H	0.102 ± 0.07
L65E	0.06 ± 0.04
N35E	0.161 ± 0.093
N35S	-0.508 ± 0.24
N35M	-0.118 ± 0.12
R53M	-0.099 ± 0.11
V6R	-0.974 ± 0.13

Variant	abundance fitness
R70P	-0.161 ± 0.061
R70Q	0.112 ± 0.053
R70L	0.07 ± 0.056
R70C	-0.051 ± 0.067
D49P	-0.323 ± 0.067
S26M	0.298 ± 0.27
S26V	0.088 ± 0.09
Q57W	0.156 ± 0.068
Q57R	-0.231 ± 0.052
Q57F	-0.036 ± 0.11
R76T	0.025 ± 0.051
R76L	0.024 ± 0.045
R76F	0.097 ± 0.1
R76W	0.007 ± 0.051
R76D	0.221 ± 0.066
S11A	-0.184 ± 0.056
S11C	0.182 ± 0.071
S11Q	0.01 ± 0.085
N54H	-0.116 ± 0.11
N54K	-0.089 ± 0.082
N54M	0.015 ± 0.061
N54V	-0.025 ± 0.044
H51I	-0.244 ± 0.13
I2N	0.05 ± 0.1

Variant	abundance fitness
L36Q	-0.113 ± 0.1
L36G	-0.17 ± 0.052
C4P	-0.833 ± 0.14
C4H	-1.23 ± 0.25
C4M	-0.521 ± 0.12
N45E	-0.025 ± 0.072
N45V	-0.058 ± 0.057
N45S	0.061 ± 0.08
Q18G	-0.061 ± 0.047
H52I	0.07 ± 0.047
H52M	-0.019 ± 0.052
C59Q	-0.801 ± 0.12
C59I	-1 ± 0.31
C24R	-0.795 ± 0.071
C24A	-0.841 ± 0.11
C24P	-0.609 ± 0.12
C56I	-0.627 ± 0.19
R71A	0.007 ± 0.035
R71M	0.151 ± 0.045
R71Y	0.089 ± 0.062
K29D	0.153 ± 0.08
K29W	-0.149 ± 0.054
E72W	-0.248 ± 0.05
E72S	-0.252 ± 0.044

Variant	abundance fitness
Q75I	-0.077 ± 0.059
Q75C	-0.07 ± 0.055
Q75N	-0.115 ± 0.083
F19C	-0.216 ± 0.12
F19Y	0.352 ± 0.15
F19S	0.032 ± 0.065
F19V	-0.269 ± 0.064
A42W	-0.123 ± 0.086
A42L	0 ± 0.067
A42G	0.217 ± 0.048
E3K	-0.226 ± 0.083
K25S	0.067 ± 0.051
K25R	0.095 ± 0.04
K25E	0.183 ± 0.047
K25D	0.183 ± 0.075
K63C	-0.17 ± 0.063
K63E	-0.161 ± 0.044
H15A	-0.029 ± 0.098
V67I	-0.093 ± 0.07
R44V	-0.292 ± 0.048
R44N	0.11 ± 0.075
R44Y	-0.432 ± 0.2
R44Q	-0.048 ± 0.065
G17C	-0.274 ± 0.16

Variant	abundance fitness
G17M	-0.703 ± 0.42
G17Y	-0.396 ± 0.36
V5N	0.152 ± 0.2
V5H	0.185 ± 0.19
V5D	-0.081 ± 0.13
V5T	0.104 ± 0.11
V5F	0.199 ± 0.16
V5W	0.003 ± 0.09
R60F	0.132 ± 0.059
G68K	-0.747 ± 0.099
G68Y	-0.436 ± 0.12
G68R	-0.65 ± 0.049
G68W	-0.666 ± 0.085
V74A	0.028 ± 0.041
V74D	-0.065 ± 0.056
V74P	-0.151 ± 0.076
V74R	-0.449 ± 0.044
T39K	-0.083 ± 0.14
T39G	-0.099 ± 0.057
T39P	-0.359 ± 0.18
T39F	0.23 ± 0.28
D9T	-0.047 ± 0.092
D9A	-0.128 ± 0.066
G13F	-0.206 ± 0.075

Variant	abundance fitness
S31Q	0.053 ± 0.087
S31G	-0.598 ± 0.079
S31I	0.014 ± 0.42
S31H	-0.176 ± 0.12
P47V	-0.003 ± 0.049
G77L	-0.095 ± 0.064
V32H	0.19 ± 0.14
V32I	-0.089 ± 0.11
T20P	-0.402 ± 0.087
T20N	-0.191 ± 0.14
T20M	-0.079 ± 0.076
G23K	-0.044 ± 0.19
L61W	-0.05 ± 0.041
L61N	-0.702 ± 0.14
L61H	-0.668 ± 0.12
L61D	-0.799 ± 0.12
C40V	-0.861 ± 0.077
C40W	-0.712 ± 0.1
F27D	-0.783 ± 0.28
F27L	-0.819 ± 0.15
Y16E	-0.05 ± 0.081
Y16F	0.201 ± 0.14
Y16R	-0.31 ± 0.08
